Several values for one entry are separate records, joined by “and”; a condition that tells them apart may be missing. Equal values may be shown once.

By stoichiometry N is commonly meant a count of units in the complex or per binding partner. In general, Kd refers to the constant that tells how readily two partners part at equilibrium.

First the molecules themselves.
B2: Drosophila ASCIZ QT2–4 (residues 271–341) (domain or fragment, UniProt Q9VZU1 271-341, looked up)
chain: EVLAPLLRDIETQTPDTRGDIGTMTDDFPEEQEPVAVGSHFHAYSETEPMFDLQTSAHMYTQTCDDLFEEL
notes: also called wildtype QT2–4; intact QT2–4 construct; source: E. coli Rosetta (DE3), purified under denaturing conditions (TALON, anion exchange, gel filtration)
B3: Drosophila LC8 (natural protein)
chain: MSDRKAVIKNADMSEEMQQDAVDCATQALEKYNIEKDIAAYIKKEFDKKYNPTWHCIVGRNFGSYVTHETRHFIYFYLGQVAILLFKSG
notes: LC8 hub protein (dynein light chain LC8) of Drosophila; folds as a homodimer; tag cleaved by TEV protease; also called LC8 dimer; source: E. coli Rosetta (DE3), purified (TALON, anion exchange, Superdex 75 gel filtration)

Data set [1] deals with QT2,4 (QT2–4 double-site variant, motifs QT2 and QT4 intact) (Drosophila) (UniProt Q9VZU1). As to the kind of experiment: native MS; native ESI-MS; LC8 mixed with double-site QT variant at 2:1 LC8:QT, overnight at 4 °C; 25 µM total protein and dilutions to 500 nM; 200 mM ammonium acetate, pH 7.4. To be noted: scale: LC8 chains per variant chain.
Data set [2] concerns the target QT3,4 (QT2–4 double-site variant, motifs QT3 and QT4 intact) (Drosophila) (UniProt Q9VZU1). The data set is described as above. To be noted: scale: LC8 chains per variant chain.
The target in data set [3] is QT2,3 (QT2–4 double-site variant, motifs QT2 and QT3 intact) (Drosophila) (UniProt Q9VZU1). Described as above. To be noted: scale: LC8 chains per variant chain.
Data set [4] concerns the target QT3,4 (QT2–4 double-site variant, motifs QT3 and QT4 intact) (Drosophila) (UniProt Q9VZU1). The data set can be described thus: ITC; LC8 (400–500 µM) in the syringe titrated into QT variant (20–50 µM) in the cell; 25 °C; 50 mM sodium phosphate, 50 mM NaCl, 1 mM sodium azide, 5 mM β-mercaptoethanol, pH 7.5; single set of sites fit, for double-site variants also sequential binding sites (SBS) and two sets of sites (TSS) fits.

Data set [5] concerns the target QT2,3 (QT2–4 double-site variant, motifs QT2 and QT3 intact) (Drosophila) (UniProt Q9VZU1). Described as above.
Data set [6] addresses B3. The data set is described as above. To be noted: both partners purified.
Data set [7] concerns the target B3. As to the kind of experiment: negative-stain electron microscopy; images of a QT2–4/LC8 mixture; strings of LC8 dimers counted in 50 images. To be noted: both partners purified.
Data set [8] deals with B2. As to the kind of experiment: SEC-MALS; 90 µM QT2–4 or QT4–6 mixed with 300 µM LC8 (1:3.3); Superdex200 10/300 GL, room temperature; 50 mM sodium phosphate, 0.4 M NaCl, 1 mM NaN3, 5 mM β-mercaptoethanol, pH 7.5. To be noted: both partners purified. (In gel filtration, larger molecules generally elute earlier.)
Data set [9] concerns the molecule itself. The data set can be described thus: native MS; native ESI-MS of the individual proteins (25 µM; dilution series); 200 mM ammonium acetate, pH 7.4.
Data set [10] deals with QT2,4 (QT2–4 double-site variant, motifs QT2 and QT4 intact) (Drosophila) (UniProt Q9VZU1). The data set can be described thus: ITC; LC8 (400–500 µM) in the syringe titrated into QT variant (20–50 µM) in the cell; 25 °C; 50 mM sodium phosphate, 50 mM NaCl, 1 mM sodium azide, 5 mM β-mercaptoethanol, pH 7.5; single set of sites fit, for double-site variants also sequential binding sites (SBS) and two sets of sites (TSS) fits. On the technique in general: In ITC the heat of successive injections is recorded.

Data set [11] addresses QT2 (QT2–4 single-site variant, only motif QT2 intact) (Drosophila) (UniProt Q9VZU1). Described as above.
Data set [12] has as its target QT4 (QT2–4 single-site variant, only motif QT4 intact) (Drosophila) (UniProt Q9VZU1). Described as above.

For “Drosophila LC8 (from UniProt Q24117 1-89) (natural protein)”, the stoichiometry N in data set [1] is 2 (2×) and 4 and 3; in data set [2], 2 (2×) and 4 and 3; in data set [3], 2 (2×) and 4 and 3. In addition, the N of site QT3, two sets of sites fit in data set [4] was found to be 0.2. In [5], this molecule had a fold stabilisation of the stronger site (QT2) against its single-site variant, two sets of sites fit of 7 fold. Besides, the fold stabilisation of the weaker site (QT3) against its single-site variant, two sets of sites fit in [5] came out at 2 fold.

B1: QT3 (QT2–4 single-site variant, only motif QT3 intact) (domain or fragment)
chain: EVLAPLLRDIEAAAPDTRGDIGTMTDDFPEEQEPVAVGSHFHAYSETEPMFDLQTSAHMYAAACDDLFEEL
modifications: Anchor positions are not printed. They were deduced from 8-residue motifs ending in the anchor, linkers of 3 and 30 residues, and 9 residues after QT4; the wild-type letters must match the entry …
B1 displayed a Kd in the data set with Drosophila LC8 [6] of 36 µM.
Turning to B2, in the data set with Drosophila LC8 [7], the binding result is on record as “binds”.
With B3, the “stoichiometry N” value in data set [8] was 1 LC8 chains per QT2–4 chain (2 QT2–4 chains, 2 LC8 chains). For the same molecule, the “stoichiometry N” value in data set [9] came to 2. In addition, in data set [10], the N of site QT4, two sets of sites fit is 0.6 and the fold increase in affinity of site QT4 against the single-site variant QT4, sequential binding sites fit came to 5 fold. In data set [11], this molecule gave a Kd of 9.3 µM and a dH of -10.7 kcal/mol. In [4], this molecule displayed a Kd of the second (weaker) site, QT3, sequential binding sites fit of 40 µM and a Kd of the second (weaker) site, QT3, two sets of sites fit of 25.7 µM. In addition, in data set [12], the Kd was 15 µM and the dH is -16.1 kcal/mol.

The record behind these values is article PMC10046861, “Linker Length Drives Heterogeneity of Multivalent Complexes of Hub Protein LC8 and Transcription Factor ASCIZ” (Biomolecules, 2023).
